B1: Novozymes Lipolase 100 L type EX: commercial lipase, source Thermomyces lanuginosus (Novozymes) (protein, UniProt O59952 23-291, looked up)
Lipase: EVSQDLFNQFNLFAQYSAAAYCGKNNDAPAGTNITCTGNACPEVEKADATFLYSFEDSGVGDVTGFLALDNTNKLIVLSFRGSRSIENWIGNLNFDLKEINDICSGCRGHDGFTSSWRSVADTLRQKVEDAVREHPDYRVVFTGHSLGGALATVAGADLRGNGYDIDVFSYGAPRVGNRAFAEFLTVQTGGTLYRITHTNDIVPRLPPREFGYSHSSPEYWIKSGTLVPVTRNDIVKIEGIDATGGNNQPNIPDIPAHLWYFGLIGTCL
B2: Novozymes Lipozyme TL 100 L: commercial lipase, source Thermomyces lanuginosus (Novozymes) (protein, UniProt O59952 23-291, looked up)
Lipase: B1 Lipase

Test: Perhydrolysis of triacetin with hydrogen peroxide; peracetic acid measured by HPLC method of Karst et al.
Assay type: biochemical
Conditions: Table 14: triacetin 250 mM, H2O2 1.0 M, pH 6.5, 25° C., 50 μg/mL of commercial lipase
Description: Determination of the concentration of peracetic acid in the reaction mixture was performed according to the method described by Karst et al. Aliquots (0.250 mL) of the reaction mixture were removed at 10 min and 30 min and filtered using an Ultrafree® MC-filter unit (30,000 Normal Molecular Weight Limit (NMWL), Millipore cat #UFC3LKT 00) by centrifugation for 2 min at 12,000 rpm; removal of the protein component of the aliquot by filtration terminated the reaction. An aliquot (0.100 mL) of the resulting filtrate was transferred to 1.5-mL screw cap HPLC vial (Agilent Technologies, Palo Alto, Calif.; #5182-0715) containing 0.300 mL of deionized water, then 0.100 mL of 20 mM MTS (methyl-p-tolyl-sulfide) in acetonitrile was added, the vials capped, and the contents briefly mixed prior to a 10 min incubation at ca. 25° C. in the absence of light. To each vial was then added 0.400 mL of acetonitrile and 0.100 mL of a solution of triphenylphosphine (TPP, 40 mM) in acetonitrile, the vials re-capped, and the resulting solution mixed and incubated at ca. 25° C. for 30 min in the absence of light. To each vial was then added 0.100 mL of 10 mM N,N-diethyl-m-toluamide (DEET; HPLC external standard) and the resulting solution analyzed by HPLC as described below.
Supelco Discovery C8 column (10-cm×4.0-mm, 5 μm) (cat. #569422-U) w/precolumn Supelco Supelguard Discovery C8 (Sigma-Aldrich; cat #59590-U); 10 microliter injection volume; gradient method with CH3CN (Sigma-Aldrich; #270717) and deionized H2O at 1.0 mL/min and ambient temperature: […]
An extract of E. coli UM2/pSW186 transformant (20 mg total protein/mL extract, prepared as described in Example 21) was employed in 1.0 mL perhydrolysis reactions (run as described in Example 21) containing triacetin (40 mM or 100 mM), hydrogen peroxide (40 mM or 100 mM) and extract total protein (0.1 mg/mL or 1.0 mg/mL) in phosphate buffer (Pi, 100 mM, 200 mM or 300 mM) at pH 6.5 or 7.5 at 25° C. each reaction (Table 11).
(§1) Separate 1.0 mL reactions containing triacetin (250 mM), hydrogen peroxide (1.0 M) and 50 μg of extract total protein in 50 mM phosphate buffer (pH 6.5) were run at 25° C. with each transformant extract. […] The concentration of peracetic acid in the reaction mixtures (Table 12) was determined according to the method of Karst et al. as described in Example 2.
as §1, with “1-mL” for “1.0 mL”, “protein from a cell extract (prepared as described above)” for “protein”, “C.” for “C. with each transformant extract.”, “13)” for “12)”, “al.” for “al. as”, “2. […]” for “2.”

Molecule | PAA (ppm); 5 min | PAA (ppm); 30 min
B1 | 10 ppm | 0 ppm
B2 | 125 ppm | 370 ppm
